In US10221225B2, “Peptides and combination of peptides and scaffolds thereof for use in immunotherapy against colorectal carcinoma (CRC) and other cancers” (immatics biotechnologies GmbH, priority 2015, dated 2019) one finds Peptide exchange and Wells positive data, which are given here for 25 substances.

Test [1] concerns the target HLA-A*02:01 (Homo sapiens, UniProt P04439, D140Y/D185E/D98H/E176V/E277Q/G131W/G231S/I119V/I121R/I166T/I218V/L300P/L318F/N151K/N90K/P208A/P217A/Q86G/Q94H/R138H/R169H/T345S). Description: MHC binding assay (UV-ligand exchange, beta2m ELISA, peptide exchange yield). Particulars: MHC class I binding score; binding to HLA-A*02:01 ranged by peptide exchange yield (UV-ligand exchange, β2m ELISA). The method in brief:
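UV-exchange pMHC monomers, 100-fold diluted → streptavidin capture 1 h 37 °C → HRP anti-β2m 2 ug/ml 1 h 37 °C → TMB, A450. Yield from HLA-A*02:01/MLA-001 monomer standard curve, 15-500 ng/ml. Only stably bound peptides keep β2m-containing complexes intact.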

The subject of test [2] is CD8+ T-cells. Description: In vitro T-cell priming assay with aAPCs loaded with peptide/MHC and anti-CD28, pMHC multimer readout. The class given is cell-based, human. As to conditions: in vitro immunogenicity, HLA-A*02 restricted peptides. The text has this: In order to obtain information regarding the immunogenicity of the TUMAPs of the present invention, the inventors performed investigations using an in vitro T-cell priming assay based on repeated stimulations of CD8+ T-cells with artificial antigen presenting cells (aAPCs) loaded with peptide/MHC complexes and anti-CD28 antibody.
In order to perform in vitro stimulations by artificial antigen presenting cells loaded with peptide-MHC complex (pMHC) and anti-CD28 antibody, the inventors first isolated CD8+ T-cells from fresh HLA-A*02 leukopheresis products via positive selection using CD8 microbeads (Miltenyi Biotec, Bergisch-Gladbach, Germany) of healthy donors obtained from the University clinics Mannheim, Germany, after informed consent.
PBMCs and isolated CD8+ lymphocytes were incubated in T-cell medium (TCM) until use consisting of RPMI-Glutamax (Invitrogen, Karlsruhe, Germany) supplemented with 10% heat inactivated human AB serum (PAN-Biotech, Aidenbach, Germany), 100 U/ml Penicillin/100 μg/ml Streptomycin (Cambrex, Cologne, Germany), 1 mM sodium pyruvate (CC Pro, Oberdorla, Germany), 20 μg/ml Gentamycin (Cambrex). 2.5 ng/ml IL-7 (PromoCell, Heidelberg, Germany) and 10 U/ml IL-2 (Novartis Pharma, Nürnberg, Germany) were also added to the TCM at this step.
Generation of pMHC/anti-CD28 coated beads, T-cell stimulations and readout was performed in a highly defined in vitro system using four different pMHC molecules per stimulation condition and 8 different pMHC molecules per readout condition.
The purified co-stimulatory mouse IgG2a anti human CD28 Ab 9.3 (Jung et al., 1987) was chemically biotinylated using Sulfo-N-hydroxysuccinimidobiotin as recommended by the manufacturer (Perbio, Bonn, Germany). Beads used were 5.6 μm diameter streptavidin coated polystyrene particles (Bangs Laboratories, Illinois, USA).
800,000 beads/200 μl were coated in 96-well plates in the presence of 4×12.5 ng different biotin-pMHC, washed and 600 ng biotin anti-CD28 were added subsequently in a volume of 200 μl. Stimulations were initiated in 96-well plates by co-incubating 1×10^6 CD8+ T-cells with 2×10^5 washed coated beads in 200 μl TCM supplemented with 5 ng/ml IL-12 (PromoCell) for 3 days at 37° C. Half of the medium was then exchanged by fresh TCM supplemented with 80 U/ml IL-2 and incubating was continued for 4 days at 37° C. This stimulation cycle was performed for a total of three times. For the pMHC multimer readout using 8 different pMHC molecules per condition, a two-dimensional combinatorial coding approach was used as previously described (Andersen et al., 2012) with minor modifications encompassing coupling to 5 different fluorochromes. Finally, multimeric analyses were performed by staining the cells with Live/dead near IR dye (Invitrogen, Karlsruhe, Germany), CD8-FITC antibody clone SK1 (BD, Heidelberg, Germany) and fluorescent pMHC multimers. For analysis, a BD LSRII SORP cytometer equipped with appropriate lasers and filters was used. Peptide specific cells were calculated as percentage of total CD8+ cells. Evaluation of multimeric analysis was done using the FlowJo software (Tree Star, Oregon, USA). In vitro priming of specific multimer+ CD8+ lymphocytes was detected by comparing to negative control stimulations.

Take “11 (YLFEKTFNM; listed as Homo sapiens) [compound 11]”: the Peptide exchange result in test [1] is on record as “″+++″ (≥50 = +++)”. Besides, the Wells positive result in test [2] is listed as “″+″ (<20% = +)”.
On the same counts, the results for “12 (ALVQGILERV; listed as Homo sapiens) [compound 12]” are “″+++″ (≥50 = +++)” and “″++++″ (>= 70% = ++++)”.
Take “13 (FLLAEDTKV; listed as Homo sapiens) [compound 13]”: the Peptide exchange result in test [1] is reported as “″+++″ (≥50 = +++)”. In test [2], the Wells positive entry is listed as “″++″ (20%-49% = ++)”.
With “17 (ALAAARVEL; listed as Homo sapiens) [compound 17]”, the Peptide exchange entry in test [1] is “″+++″ (≥50 = +++)”. In test [2], the Wells positive entry is given as “″++″ (20%-49% = ++)”.
The like results for “18 (FLSSLKGGLL; listed as Homo sapiens) [compound 18]” were, in that order, “″+++″ (≥50 = +++)” and “″+″ (<20% = +)”.
Regarding “19 (RLYTKLLNEA; listed as Homo sapiens) [compound 19]”, the Peptide exchange result in test [1] was “″+++″ (≥50 = +++)”. In addition, the Wells positive entry in test [2] was “″+++″ (50%-69% = +++)”.
The like results for “21 (VLIDHRWVL; listed as Homo sapiens) [compound 21]” were, in that order, “″+++″ (≥50 = +++)” and “″+″ (<20% = +)”.
The like results for “22 (GLIDEVMVL; listed as Homo sapiens) [compound 22]” were, in that order, “″+++″ (≥50 = +++)” and “″++″ (20%-49% = ++)”.
Turning to “31 (LLYGKYVSV; listed as Homo sapiens) [compound 31]”, the Peptide exchange entry in test [1] is reported as “″+++″ (≥50 = +++)”. Also, the Wells positive result in test [2] is on record as “″++″ (20%-49% = ++)”.
The like results for “32 (KLNTETFGV; listed as Homo sapiens) [compound 32]” were, in that order, “″++″ (≥20% = ++)” and “″++″ (20%-49% = ++)”.
The like results for “37 (GLFAGLGGAGA; listed as Homo sapiens) [compound 37]” were, in that order, “″+++″ (≥50 = +++)” and “″+″ (<20% = +)”.
On the same counts, the results for “38 (SLAPTPVSA; listed as Homo sapiens) [compound 38]” are “″++″ (≥20% = ++)” and “″+″ (<20% = +)”.
As to “42 (SILDDSFKL; listed as Homo sapiens) [compound 42]”, the Peptide exchange entry in test [1] was “″++++″ (≥75% = ++++)”. Besides, the Wells positive result in test [2] is “″+″ (<20% = +)”.
On the same counts, the results for “47 (KLYERCEVV; listed as Homo sapiens) [compound 47]” are “″++″ (≥20% = ++)” and “″+″ (<20% = +)”.
The like results for “59 (LLTDNVVKL; listed as Homo sapiens) [compound 59]” were, in that order, “″+++″ (≥50 = +++)” and “″+″ (<20% = +)”.
The like results for “64 (KTLGKLWRL; listed as Homo sapiens) [compound 64]” were, in that order, “″++″ (≥20% = ++)” and “″++++″ (>= 70% = ++++)”.
As for “123 (KTLERSYLL; listed as Homo sapiens) [compound 123]”, in test [1], the Peptide exchange entry is on record as “″++″ (≥20% = ++)”. Further, the Wells positive entry in test [2] was “″+″ (<20% = +)”.
The like results for “124 (RVLPPSALQSV; listed as Homo sapiens) [compound 124]” were, in that order, “″+++″ (≥50 = +++)” and “″+″ (<20% = +)”.
With “127 (RLAELTVDEFLA; listed as Homo sapiens) [compound 127]”, the Peptide exchange result in test [1] was “″+++″ (≥50 = +++)”. Besides, the Wells positive result in test [2] was “″+″ (<20% = +)”.
The like results for “132 (ALLNAILHSA; listed as Homo sapiens) [compound 132]” were, in that order, “″++″ (≥20% = ++)” and “″+″ (<20% = +)”.
The like results for “133 (RTFEKIEEV; listed as Homo sapiens) [compound 133]” were, in that order, “″++″ (≥20% = ++)” and “″+″ (<20% = +)”.
On the same counts, the results for “136 (KLFDIFSQQV; listed as Homo sapiens) [compound 136]” are “″+++″ (≥50 = +++)” and “″++″ (20%-49% = ++)”.
As to “141 (AVIEHLERL; listed as Homo sapiens) [compound 141]”, the Peptide exchange result in test [1] was “″++++″ (≥75% = ++++)”. In addition, in test [2], the Wells positive entry is reported as “″+″ (<20% = +)”.
The like results for “142 (SLVQRVETI; listed as Homo sapiens) [compound 142]” were, in that order, “″+++″ (≥50 = +++)” and “″+″ (<20% = +)”.
The like results for “150 (RLADLEALKV; listed as Homo sapiens) [compound 150]” were, in that order, “″+++″ (≥50 = +++)” and “″++″ (20%-49% = ++)”.
